These results are taken from US7465537B2, “Compounds and methods for inhibiting hepatitis C virus replication” (The Board of Trustees of the University of Arkansas, priority 2005, dated 2008).

Data set [1] relates to HCV-Luc replicon. The data set can be described thus: HCV-Luc replicon luciferase assay in Huh-7 cells. It is filed as cell-based, hepatitis C virus. The note with it: peptide added to Huh-7 cells containing the replicon; 48 hours. As to the method: HCV Replicon assays: Huh-7 cells were transiently transfected with replicon RNA having a firefly (P. pyralis) luciferase gene (0.2 μg/well), and with a control plasmid pRL (0.05 μg/well) having a renilla (R. reniformis) luciferase gene, using DMRIEC (Invitrogen) reagent as per the kit protocol (19). The specific additions of pmNS3, mutant replicon, pwt-NS3 etc were done concurrently. The cells were lysed after 48 hours, and luciferase activity detected using the DUAL LUCIFERASE assay kit (Promega) (24, 25).
Trans complementation assays: These assays were performed in the same manner as the regular replicon assays except that in the trans complementation assays two RNA's of different replicons (wild type and the mutant) were added along with a pRL plasmid to control for transfection efficiency.
In vivo the dominant negative mNS3 (pmNS3) down regulates the activity of the HCV-Luc replicon: Huh-7 cells were plated in a 12-well plate at 0.1 million cells per well. […]
The peptide was introduced into Huh-7 cells containing the HCV luciferase replicon. 48 hours after introduction of the peptide, luciferase activity was measured. […]

Data set [2] concerns the target fluorescein-labeled U20 RNA. Description: RNA binding assay by fluorescence polarization. The note with it: 37° C. As to the method: (§1) FIGS. 10A and B. Binding of mutant NS3h to fluorescein-labeled U20 RNA (FIG. 10A) or dT15 DNA (FIG. 10B). Nucleic acid binding was determined by measuring fluorescence polarization following incubation of protein and nucleic acid at 37° C. Data were fit to a hyperbola using Kaleidagraph software.
(§2) Varying concentrations of NS3h were incubated with 500 pM 5′-fluorescein-labeled rU20 (Integrated DNA Technologies) in 50 mM MOPS-K+(pH 7.0), 10 mM NaCl, 50 μM EDTA, 0.1 mg/ml BSA for 5 minutes at 37° C. Binding was measured as a function of fluorescence polarization using a Beacon fluorescence polarization system. Data were fit to a hyperbola using Kaleidagraph software.

Data set [3] deals with dT15 DNA. The data set can be described thus: DNA binding by fluorescence polarization. To be noted: 37° C. As to the method:
as §1, §2

Data set [4] can be described thus: Coupled ATPase assay stimulated by polyU. It is filed as biochemical. To be noted: saturating polyU. As to the method:
FIG. 11. ATPase activity of mutant NS3h was measured as a function of NADH concentration in a coupled assay at varying concentrations of polyU. Data were fit to a hyperbola using Kaleidagraph software. […] Specific activity of NS3h DDDD (▪) was lower.
NS3h was incubated with 5 mM ATP in 50 mM HEPES (pH=7.5), 5 mM EDTA, 10 mM MgCl2, 10 mM NaCl, 0.1 mg/ml BSA, 4 mM phosphoenolpyruvate, 10 U/ml pyruvate kinase/lactate dehydrogenase, and 0.7 mg/ml NADH. Absorbance of NADH at 380 nm was measured at 1 sec intervals for a period of 30 sec in the presence of the indicated concentrations of poly-U. Hydrolysis rates were calculated using an extinction coefficient of 1,210 M^−1 cm^−1 for NADH. Data were fit to a hyperbola using Kaleidagraph software.

In data set [5] the test system is 45:30mer DNA substrate. The data set can be described thus: Steady state DNA unwinding assay. It is filed as biochemical. As to the method:
FIGS. 12A-C. Steady state unwinding activity of mutant versus wild type NS3h. A) The assay for measuring helicase unwinding activity is depicted. A partially duplexed substrate containing 30 bp and 15 nt of ss overhang (45:30mer) was incubated with NS3h in the presence of ATP and Mg^+2 leading to unwinding of the duplex. B) Comparison of unwinding of DNA and RNA substrates by NS3h. Otherwise identical 250 nM duplexed DNA and RNA substrates were incubated with 100 nM NS3h. Reactions were initiated by addition of 5 mM ATP and 10 mM MgCl2 and quenched by addition of 200 mM EDTA/0.7% SDS. C) Unwinding of 250 nM substrate under steady state conditions. Unwinding by 100 nM NS3h (●), NS3h KDA (∘), and NS3h DDDD (▪) occurred at rates of 5.3 nM min^−1, 5.7 nM min^−1, and 4.1 nM min^−1, respectively.
The substrate used was a 45-mer/30-mer containing 30 base pairs of double-stranded DNA with a 15 base 3′ single-stranded overhang. One strand was radiolabeled by incubation with γ-^32P-ATP and T4 polynucleotide kinase at 37° C. for 60 min. Unincorporated ATP was removed by SEPHADEX G-25 filtration. Equimolar amounts of labeled and complementary unlabeled strands were combined, heated to 95° C. for 10 min, and cooled slowly to room temperature to generate the final substrate. For steady state unwinding experiments, 100 nM NS3h was incubated with 250 nM substrate in 25 mM HEPES (pH=7.5), 0.5 mM EDTA, 10 mM MgCl2, 10 mM NaCl, 0.1 mg/ml BSA. Reactions were initiated by addition of 5 mM ATP. Aliquots were taken at specific time points and the reaction was quenched by addition of 200 mM EDTA, 0.7% SDS. Substrate and product were separated by native polyacrylamide gel electrophoresis and detected and quantified by phosphorimaging analysis.

For data set [6], the system named is partial duplex DNA substrate (15 nt single stranded, 30 base pairs). Description: ATP-independent DNA unwinding assay. To be noted: 500 nM enzyme, excess over substrate, no ATP, 37° C. It is filed as biochemical. As for the experimental part: FIG. 13. Graph showing ATP-independent unwinding activity of NS3h wild-type, NS3h KDA, and NS3h DDDD. NS3h, 500 nM, was incubated with a partial duplex DNA substrate containing 15 nt of single stranded DNA and 30 base pairs at 37° C. Aliquots were quenched by addition of 100 μM poly dT and 60 nM of a 30mer oligonucleotide that served to prevent reannealing. ssDNA was separated from dsDNA by native polyacrylamide electrophoresis and the resulting fractions were quantified by using IMAGEQUANT software. DNA melting is shown for NS3h (●), NS3h KDA (♦), and NS3h DDDD (▪).
NS3h or NS3h mutant enzymes (500 nM) were mixed with 2 nM DNA substrate (described in steady state section) in 25 mM MOPS (pH 7.0), 10 mM NaCl, 0.1 mM EDTA (pH 8.0), 2 mM βME, and 0.1 mg/mL BSA at 37° C. Aliquots were transferred to a ‘quench solution’ containing 200 mM EDTA, 0.7% SDS, 5 mM ATP, 10 mM MgCl2, 60 nM annealing trap, and 100 μM poly-dT protein trap. Double- and single-stranded DNA were resolved on a native 20% polyacrylamide gel. The radiolabeled substrate and product were detected using a PHOSPHORIMAGER (Molecular Dynamics, Sunnyvale, Calif.); quantitation was performed with IMAGEQUANT software. The ratio of single- to double-stranded DNA was determined and plotted as a function of time.

The test system of data set [7] is 45:30mer DNA substrate. The data set can be described thus: Single turnover DNA unwinding assay (quench-flow, two-step mixing). It is filed as biochemical. The note with it: for single turnover unwinding rate / amplitude for unwinding: 500 nM enzyme; for single turnover unwinding rate: 2 nM substrate, fit to equation 1; for amplitude for unwinding: single turnover. As for the experimental part:
FIG. 14. Single turnover DNA unwinding by NS3h and NS3h mutant enzymes. A two-step mixing technique was used to measure single-turnover unwinding in the presence of excess NS3h. NS3h (500 nM) or mutant enzyme was rapidly mixed with substrate followed by a 10-second incubation. A second, rapid mixing step followed in which ATP, Mg^+2, and protein trap (poly dT) was added. Data were fit according to equation 1 resulting in unwinding rates of 3.1±0.1 s^−1 and 3.7±0.1 s−1 for NS3h (●) and NS3h KDA (♦), respectively. The amplitudes for unwinding were 0.35±0.01 nM and 0.21±0.01 nM for NS3h and NS3h KDA, respectively.
Unwinding assays were carried out using a Quench-Flow apparatus (RQF-3, KinTek Instruments, Austin, Tex.) with a two-step mixing protocol (49). Reactions were carried out in 25 mM MOPS (pH 7.0), 10 mM NaCl, 0.1 mM EDTA (pH 8.0), 2 mM βME, and 0.1 mg/mL BSA at 37° C.; all concentrations are post-mixing. NS3h (500 nM) was mixed with 2 nM DNA substrate (described in steady state section) for 10 seconds before adding 5 mM ATP, 10 mM MgCl2, 60 nM annealing trap (complementary to the displaced strand), and 100 μM poly-dT protein trap. The reaction was quenched after 0.1-15 seconds by ejection into a tube containing 200 mM EDTA, 0.7% SDS. Double- and single-stranded DNA were resolved on a native 20% polyacrylamide gel. The radiolabeled substrate and product were detected using a PHOSPHORIMAGER (Molecular Dynamics, Sunnyvale, Calif.); quantitation was performed with IMAGEQUANT software. The ratio of single- to double-stranded DNA was determined and plotted as a function of time. Data were fit to Equation 1, using KALEIDAGRAPH (Synergy Software, Reading, Pa.). This equation describes a 5-step mechanism for DNA unwinding that is necessary to fit the substantial lag phase associated with unwinding of the substrate (49, 52, 53). A{1−[1+kobst+1/2 (kobst)^2+1/6 (kobst)^3+1/24(kobst)^4]e^−kobs^t} Eq. 1 Results Crystallization and Structural Analysis of NS3h Bound to (dU)16

The mark [8] stands for this setting: 100 nM enzyme, 250 nM substrate.

For the molecule “HIDAHFLSQTK-GGG-YARAAARQARA (HIDAHFLSQTKGGGYARAAARQARA; NS3-oligomerization inhibitor peptide with cell entry peptide) [HCV inhibitor peptide, 25 amino acid peptide: NS3 residues 541-551, three-glycine linker, peptide transduction domain …]”, the “luciferase activity of HCV luciferase replicon after peptide” value in data set [1] was “strongly reduced the luciferase activity”.

B1: NS3h: wild type HCV NS3 helicase domain, expressed and purified independently of NS3 protease (protein)
chain: AVDFVPVESMETTMRSPVFTDNSSPPAVPQTFQVAHLHAPTGSGKSTKVPAAYAAQGYKVLVLNPSVAATLGFGAYMSKAHGIDPNIRTGVRTITTGAPITYSTYGKFLADGGCSGGAYDIIICDECHSTDSTTILGIGTVLDQAETAGARLVVLATATPPGSVTVPHPNIEEVALSSTGEIPFYGKAIPIETIKGGRHLIFCHSKKKCDELAAKLSGLGLNAVAYYRGLDVSVIPTSGDVIVVATDALMTGFTGDFDSVIDCNTCVTQTVDFSLDPTFTIETTTVPQDAVSRSQRRGRTGRGRMGIYRFVTPGERPSGMFDSSVLCECYDAGCAWYELTPAETSVRLRAYLNTPGLPVCQDHLEFWESVFTGLTHIDAHFLSQTKQAGDNFPYLVAYQATVCARAQAPPPSWDQMWKCLIRLKPTLHGPTPLLYRLGAVQNEVTTTHPITKYIMACMSADLEVVT
As for B1, the Kd in data set [2] was 47 ± 5 nM; in data set [3], 5.9 ± 1.4 nM. In data set [4], the ATPase specific activity amounted to 126 s⁻¹. In addition, the “steady state unwinding rate” value is 5.3 nM/min in data set [5] (setting [8]) and “approximately 1 nM/min” in data set [5] (45:30mer DNA, steady state conditions). The ATP-independent unwinding result in data set [6] is recorded as “much greater ATP-independent unwinding than NS3h KDA or NS3h DDDD”. The “single turnover unwinding rate” value in data set [7] was 3.1 ± 0.1 s⁻¹. Moreover, in data set [7] (same substrate, same conditions for both forms (unpublished data)), the “fraction of 45:30mer unwound” value is given as 17%. For the same molecule, the amplitude for unwinding in data set [7] amounted to 0.35 ± 0.01 nM.

B2: NS3h KDA: purified NS3 helicase domain with D543K/H545D/Q549A mutations (protein)
chain: AVDFVPVESMETTMRSPVFTDNSSPPAVPQTFQVAHLHAPTGSGKSTKVPAAYAAQGYKVLVLNPSVAATLGFGAYMSKAHGIDPNIRTGVRTITTGAPITYSTYGKFLADGGCSGGAYDIIICDECHSTDSTTILGIGTVLDQAETAGARLVVLATATPPGSVTVPHPNIEEVALSSTGEIPFYGKAIPIETIKGGRHLIFCHSKKKCDELAAKLSGLGLNAVAYYRGLDVSVIPTSGDVIVVATDALMTGFTGDFDSVIDCNTCVTQTVDFSLDPTFTIETTTVPQDAVSRSQRRGRTGRGRMGIYRFVTPGERPSGMFDSSVLCECYDAGCAWYELTPAETSVRLRAYLNTPGLPVCQDHLEFWESVFTGLTHIKADFLSATKQAGDNFPYLVAYQATVCARAQAPPPSWDQMWKCLIRLKPTLHGPTPLLYRLGAVQNEVTTTHPITKYIMACMSADLEVVT
B2 came in with a Kd in data set [2] of 38 ± 4 nM. The molecule also came in with a Kd in data set [3] of 2.6 ± 0.8 nM. The same molecule had an ATPase specific activity in data set [4] of 108 s⁻¹. Also, the “steady state unwinding rate” value in data set [5] (setting [8]) was 5.7 nM/min. Also, in data set [7], the “single turnover unwinding rate” value was 3.7 ± 0.1 s⁻¹ and the amplitude for unwinding was 0.21 ± 0.01 nM.
